T1: S. cerevisiae Spp381 (pre-mRNA-splicing factor suppressor of prp38-1), full-length wild type (S. cerevisiae, UniProt P38282 1-291)
T1 construct: Spp381, S. cerevisiae, UniProt P38282, ORF amplified from genomic DNA; also called scSpp381; scSpp381^FL; source: E. coli Rosetta 2 (DE3) or BL21 (DE3) RIL, purified (Ni-NTA, TEV cleavage, SEC); not shown: His6, N-terminal, cleaved
T1 sequence (looked up): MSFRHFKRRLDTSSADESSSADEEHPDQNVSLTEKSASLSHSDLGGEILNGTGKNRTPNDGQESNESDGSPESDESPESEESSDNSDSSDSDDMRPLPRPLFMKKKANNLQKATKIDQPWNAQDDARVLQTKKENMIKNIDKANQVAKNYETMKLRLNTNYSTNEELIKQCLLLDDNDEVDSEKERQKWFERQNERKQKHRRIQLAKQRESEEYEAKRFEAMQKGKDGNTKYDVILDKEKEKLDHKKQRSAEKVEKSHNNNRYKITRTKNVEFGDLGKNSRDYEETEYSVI

B1: S. cerevisiae Spp381 residues 177-248 (domain or fragment, UniProt P38282 177-248, looked up)
chain: NDEVDSEKERQKWFERQNERKQKHRRIQLAKQRESEEYEAKRFEAMQKGKDGNTKYDVILDKEKEKLDHKKQ
notes: also called scSpp381^177-248; source: E. coli Rosetta 2 (DE3) or BL21 (DE3) RIL, purified (Ni-NTA, TEV cleavage, SEC); not shown: His6, N-terminal, cleaved
B2: S. cerevisiae Snu23 (23 kDa small nuclear ribonucleoprotein component) residues 116-169 (domain or fragment, UniProt Q12368 116-169, looked up)
chain: LIIDIRDNDDVPQEEFELCYHNLIKDFVEVRSMETQSKRKRLLDTDVEKAKKVA
B3: S. cerevisiae Prp38 (pre-mRNA processing factor 38 domain containing protein), full-length wild type (natural protein, UniProt Q00723 1-242, looked up)
chain: MAVNEFQVESNISPKQLNNQSVSLVIPRLTRDKIHNSMYYKVNLSNESLRGNTMVELLKVMIGAFGTIKGQNGHLHMMVLGGIEFKCILMKLIEIRPNFQQLNFLLNVKNENGFDSKYIIALLLVYARLQYYYLNGNNKNDDDENDLIKLFKVQLYKYSQHYFKLKSFPLQVDCFAHSYNEELCIIHIDELVDWLATQDHIWGIPLGKCQWNKIYNSDEESSSSESESNGDSEDDNDTSSES
notes: Prp38, S. cerevisiae, ORF amplified from genomic DNA; also called scPrp38; source: E. coli Rosetta 2 (DE3) or BL21 (DE3) RIL, purified (Ni-NTA, TEV cleavage, SEC); not shown: His6, N-terminal, cleaved
B4: Human MFAP1 (microfibrillar-associated protein 1) residues 267-344 (domain or fragment)
chain: not shown
notes: the minimal fragment used for crystallization of the hsPrp38-hsMFAP1 complex; source: E. coli Rosetta 2 (DE3) or BL21 (DE3) RIL, purified (Ni-NTA, TEV cleavage, SEC); not shown: His6, N-terminal, cleaved

Tests used:
Conditions in all cases: both partners purified
[1] = molecular target: B3; assay: SEC; analytical gel filtration of two proteins: 50 uM each, equimolar, incubated 30 min at 4 °C in SEC buffer (10 mM Tris-HCl pH 8.0, 300 mM NaCl, 0.1 mM EDTA, 1 mM DTT); Superdex 75 or Superdex 200 Increase columns at 4 °C; peak fractions by SDS-PAGE
[2] = molecular target: B3; assay: SEC; analytical gel filtration of three proteins (scSnu23 116-169, scPrp38, scSpp381 177-248) on a Superdex 75 10/300 column; fractions by SDS-PAGE
[3] = molecular target: T1, S. cerevisiae Spp381 (pre-mRNA-splicing …); assay: SEC; analytical gel filtration of two proteins: 50 uM each, equimolar, incubated 30 min at 4 °C in SEC buffer (10 mM Tris-HCl pH 8.0, 300 mM NaCl, 0.1 mM EDTA, 1 mM DTT); Superdex 75 or Superdex 200 Increase columns at 4 °C; peak fractions by SDS-PAGE

B1: binds [1].

B2: binds [2].

B3: binds [3].

B4: binds [1].

— article PMC5364666, “Human MFAP1 is a cryptic ortholog of the Saccharomyces cerevisiae Spp381 splicing factor” (BMC Evolutionary Biology, 2017)
